The record followed here is the supplement of paper PMC7877785.

The nature of the data set: self-splicing fitness, log relative to wild type (ln ratio); higher = more splicing; Tetrahymena group I intron in knt gene, E. coli kanamycin selection, DiMSum; sequences stand for … in CUCUCU…GGAGGGAAAAGUUAUCAGGCAUGCACCUGGUAGCUAGUCUUUAAACCAAUAGAUUGCAUCGGUUUAAAAGGCAAGACCGUCAAAUUGCGGGAAAGGGGUCAACAGCCGUUCAGUACCAAGUCUCAGGGGAAACUUUGAGAUGGCCUUGCAAAGGGUAUGGUAAUAAGCUGACGGACAUGGUCCUAACCACGCAGCCAAGUCCUAAGUCAACAGAUCUUCUGUUGAUAUGGAUGCAGUUCACAGACUAAAUGUCGGUCGGGGAAGAUGUAUUCUUCUCAUAAGAUAUAGUCGGACCUCUCCUUAAUGGGAGCUAGCGGAUGAAGUGAUGCAACACUGGAGCCGCUGGGAACUAAUUUGUAUGCGAAAGUAUAUUGAUUAGUUUUGGAGUACUCGUGGUCG
A digest of the protocol:
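The eight P1ex-region nucleotides of an intron in the knt kanamycin-resistance gene on pET-22b(+) were all randomised and the library put into E. coli BL21(DE3). Six replicate transformations were grown overnight at 37°C or 30°C on LB agar with or without 25 μg/mL kanamycin, together with 100 μg/mL carbenicillin, 50 μM IPTG and 0.2% rhamnose. Colonies were pooled and amplicon-sequenced on an Illumina HiSeq 2500. Fitness from DiMSum is the error-weighted combination of wild-type-normalised replicate fold changes, kanamycin over none.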

± gives the uncertainty stated by the source.

In the case of UCCCAGCAAUAUUACGAGCG, the “self-splicing fitness (ln)” value runs as follows: (30 °C) -3.32 ± 0.33; (37 °C) -2.02 ± 0.26.

As for UACCAGCAAUAUUACGCUCG, the “self-splicing fitness (ln)” value by setting is: (30 °C) -0.415 ± 0.093; (37 °C) -0.203 ± 0.11.

Turning to CAGGAGCAAUAUUACGGGGU, the “self-splicing fitness (ln)” value was -3.38 ± 0.23 (30 °C) and -2.19 ± 0.24 (37 °C).

For the sequence AGUGAGCAAUAUUACGGUUU, the “self-splicing fitness (ln)” value runs as follows: (30 °C) -2.09 ± 0.14; (37 °C) -2.28 ± 0.33.

In the case of AUUCAGCAAUAUUACGCUGC, the “self-splicing fitness (ln)” value runs as follows: (30 °C) -2.3 ± 0.13; (37 °C) -2.35 ± 0.19.

Regarding GCUGAGCAAUAUUACGCAAU, the “self-splicing fitness (ln)” value is, setting by setting: (30 °C) -2.2 ± 0.26; (37 °C) -1.9 ± 0.23.

Consider GGUGAGCAAUAUUACGGGGC, for which the “self-splicing fitness (ln)” value (37 °C) is -1.01 ± 0.32.

On to CUUAAGCAAUAUUACGGCAC, for which the “self-splicing fitness (ln)” value (30 °C) is -3.43 ± 0.43.

As for AAAUAGCAAUAUUACGCCGG, the “self-splicing fitness (ln)” value is -1.6 ± 0.13 (30 °C) and -0.713 ± 0.15 (37 °C).

With GCACAGCAAUAUUACGAACG, the “self-splicing fitness (ln)” value by setting is: (30 °C) -1.53 ± 0.1; (37 °C) -0.558 ± 0.13.

AGUGAGCAAUAUUACGGGCC: the “self-splicing fitness (ln)” value runs as follows: (30 °C) -3.49 ± 0.4; (37 °C) -2.02 ± 0.34.

Consider AAAUAGCAAUAUUACGCUCC, for which the “self-splicing fitness (ln)” value by setting is: (30 °C) -1.48 ± 0.31; (37 °C) 0.174 ± 0.42.

As to UCCCAGCAAUAUUACGCAGU, the “self-splicing fitness (ln)” value was -1.21 ± 0.075 (30 °C) and -0.7 ± 0.1 (37 °C).

As to GUGAAGCAAUAUUACGCAAC, the “self-splicing fitness (ln)” value is -2.59 ± 0.17 (30 °C) and -2.08 ± 0.22 (37 °C).

As for UCCCAGCAAUAUUACGCUUA, the “self-splicing fitness (ln)” value is -2.26 ± 0.14 (30 °C) and -0.458 ± 0.11 (37 °C).

For CCGUAGCAAUAUUACGUCAA, under “37 °C”, the “self-splicing fitness (ln)” value was -1.2 ± 0.27.

Regarding CCCAAGCAAUAUUACGCAGU, the “self-splicing fitness (ln)” value runs as follows: (30 °C) -3.15 ± 0.14; (37 °C) -2.32 ± 0.18.

Regarding GACAAGCAAUAUUACGAUGA, the “self-splicing fitness (ln)” value reads like this: (30 °C) -0.527 ± 0.078; (37 °C) -0.303 ± 0.085.

For AUGAAGCAAUAUUACGAUAC, the “self-splicing fitness (ln)” value (30 °C) is -0.832 ± 0.11 and the “self-splicing fitness (ln)” value (37 °C) is -1.5 ± 0.17.

GAUCAGCAAUAUUACGCCGA: the “self-splicing fitness (ln)” value is, setting by setting: (30 °C) -0.954 ± 0.12; (37 °C) -0.727 ± 0.11.

Consider UAUAAGCAAUAUUACGGGGC, for which the “self-splicing fitness (ln)” value (30 °C) was -2.29 ± 0.45.

For CCUCAGCAAUAUUACGCGUU, the “self-splicing fitness (ln)” value (30 °C) was -3.88 ± 0.23 and the “self-splicing fitness (ln)” value (37 °C) is -2.96 ± 0.4.

Regarding UGAAAGCAAUAUUACGCUCC, the “self-splicing fitness (ln)” value runs as follows: (30 °C) -1.4 ± 0.12; (37 °C) -0.227 ± 0.14.

Consider UGGUAGCAAUAUUACGUGUU, for which the “self-splicing fitness (ln)” value is -3.24 ± 0.28 (30 °C) and -1.82 ± 0.29 (37 °C).

On to UCCGAGCAAUAUUACGGGAA, for which the “self-splicing fitness (ln)” value is -3.05 ± 0.3 (30 °C) and -1.65 ± 0.19 (37 °C).

Take AUGCAGCAAUAUUACGGUUA: the “self-splicing fitness (ln)” value is, setting by setting: (30 °C) -1.11 ± 0.079; (37 °C) -0.0917 ± 0.071.

UAUGAGCAAUAUUACGUGGA: the “self-splicing fitness (ln)” value is, setting by setting: (30 °C) -3.52 ± 0.35; (37 °C) -3.47 ± 0.43.

AAUGAGCAAUAUUACGCCCU: the “self-splicing fitness (ln)” value was -1.32 ± 0.12 (30 °C) and -1.16 ± 0.17 (37 °C).

In the case of GUUAAGCAAUAUUACGGACG, the “self-splicing fitness (ln)” value by setting is: (30 °C) -1.07 ± 0.12; (37 °C) -1.3 ± 0.14.

GUCAAGCAAUAUUACGCGGU: the “self-splicing fitness (ln)” value by setting is: (30 °C) -3.16 ± 0.39; (37 °C) -1.82 ± 0.31.

On to GCUUAGCAAUAUUACGCAAA, for which the “self-splicing fitness (ln)” value is -2.95 ± 0.27 (30 °C) and -1.51 ± 0.2 (37 °C).

Turning to UGCAAGCAAUAUUACGAGGA, the “self-splicing fitness (ln)” value is, setting by setting: (30 °C) -3.28 ± 0.26; (37 °C) -0.992 ± 0.14.

Consider UUGCAGCAAUAUUACGCAUC, for which the “self-splicing fitness (ln)” value was -3.11 ± 0.22 (30 °C) and -3.18 ± 0.33 (37 °C).

Regarding UCAAAGCAAUAUUACGGGUG, the “self-splicing fitness (ln)” value runs as follows: (30 °C) -0.366 ± 0.056; (37 °C) 0.234 ± 0.074.

Turning to UUGCAGCAAUAUUACGUGGA, the “self-splicing fitness (ln)” value by setting is: (30 °C) -2.52 ± 0.18; (37 °C) -1.27 ± 0.13.

As for UAUGAGCAAUAUUACGUCUC, the “self-splicing fitness (ln)” value (30 °C) is -2.45 ± 0.25.

As to CUCCAGCAAUAUUACGGGUC, the “self-splicing fitness (ln)” value was -3.88 ± 0.24 (30 °C) and -2.2 ± 0.22 (37 °C).

For AAUCAGCAAUAUUACGUAAG, the “self-splicing fitness (ln)” value by setting is: (30 °C) -0.572 ± 0.075; (37 °C) -0.104 ± 0.1.

As to UUAGAGCAAUAUUACGCCGA, the “self-splicing fitness (ln)” value was -0.286 ± 0.14 (30 °C) and 0.255 ± 0.18 (37 °C).
